Test results as given in patent US20070202134A1, “Muc1 Antagonist Enhancement of Death Receptor Ligand-Induced Apoptosis” (priority 2004, published 2007).

Tested on: HCT116/vector cells
Assay: Apoptosis by analysis of sub-G1 DNA, HCT116/vector cells
Assay type: cell-based, Human
Settings: 100 ng/ml TRAIL for 14 hr, without adding CHX
Method: Methods. Apoptotic cells were quantified by analysis of sub-G1 DNA and TUNEL staining. To assess sub-G1 DNA content, cells were harvested, washed with PBS, fixed with 80% ethanol, and incubated in PBS containing 20 ng/ml RNase (Roche) for 60 min at 37° C. Cells were then stained with […] propidium iodide (Sigma) for 30 min at room temperature in the dark. DNA content was analyzed by flow cytometry (EPICS XL-MCL, Coulter Corp.). Apoptotic cells with DNA fragmentation were detected by staining with the In Situ cell death detection kit (TUNEL; Roche Applied Science) and visualized by confocal microscopy (ZEISS LSM510). After staining, cells were analyzed by flow cytometry. Other experimental procedures and methods were as described in Example 1.

B1: TRAIL: TNF-related apoptosis-inducing ligand, rhTRAIL (Calbiochem-Novabiochem) (protein, UniProt P50591 1-281, looked up)
Tumor necrosis factor ligand …: MAMMEVQGGPSLGQTCVLIVIFTVLLQSLCVAVTYVYFTNELKQMQDKYSKSGIACFLKEDDSYWDPNDEESMNSPCWQVKWQLRQLVRKMILRTSEETISTVQEKQQNISPLVRERGPQRVAAHITGTRGRSNTLSSPNSKNEKALGRKINSWESSRSGHSFLSNLHLRNGELVIHEKGFYYIYSQTYFRFQEEIKENTKNDKQMVQYIYKYTSYPDPILLMKSARNSCWSKDAEYGLYSIYQGGIFELKENDRIFVSVTNEHLIDMDHEASFFGAFLVG
  induction of apoptosis: effective in inducing apoptosis
